Among the data in patent publication US20100168033A1, “UNACYLATED GHRELIN AS THERAPEUTIC AGENT IN THE TREATMENT OF METABOLIC DISORDERS” (ALIZE PHARMA SAS, priority 2007, published 2010) are IC50 values, retold here.

No end group written: not given here.

The target of experiment [1] is UAG receptor on INS-1E pancreatic β cells (rat). Put plainly: competition with [125I-Tyr4]-UAG on INS-1E β-cell membranes, mean±SEM of three experiments.
In experiment [2] the target is UAG receptor on HIT-T15 pancreatic β cells (hamster). The experiment is described as follows: competition with [125I-Tyr4]-UAG on HIT-T15 β-cell membranes, mean±SEM of three experiments.

SPEHQRVQ (not fully specified) [UAG (6-13)]: the half-inhibitory concentration (IC50) (in general, the concentration that inhibits the measured activity by half) in experiment [1] is 2.4 nM; in experiment [2] it was 3.8 nM.

On to GSSFLSPEHQRVQQRKESKKPPAKLQPR [unacylated ghrelin UAG (1-28)], for which the results for the IC50 in experiment [1] and in experiment [2] were 2 nM and 2.6 nM, respectively.
